Numbering of substitutions follows the chain as printed.
What was measured:
[1] = target: T1, native full length human ADAMTS-13 (wild type)
T1 chain: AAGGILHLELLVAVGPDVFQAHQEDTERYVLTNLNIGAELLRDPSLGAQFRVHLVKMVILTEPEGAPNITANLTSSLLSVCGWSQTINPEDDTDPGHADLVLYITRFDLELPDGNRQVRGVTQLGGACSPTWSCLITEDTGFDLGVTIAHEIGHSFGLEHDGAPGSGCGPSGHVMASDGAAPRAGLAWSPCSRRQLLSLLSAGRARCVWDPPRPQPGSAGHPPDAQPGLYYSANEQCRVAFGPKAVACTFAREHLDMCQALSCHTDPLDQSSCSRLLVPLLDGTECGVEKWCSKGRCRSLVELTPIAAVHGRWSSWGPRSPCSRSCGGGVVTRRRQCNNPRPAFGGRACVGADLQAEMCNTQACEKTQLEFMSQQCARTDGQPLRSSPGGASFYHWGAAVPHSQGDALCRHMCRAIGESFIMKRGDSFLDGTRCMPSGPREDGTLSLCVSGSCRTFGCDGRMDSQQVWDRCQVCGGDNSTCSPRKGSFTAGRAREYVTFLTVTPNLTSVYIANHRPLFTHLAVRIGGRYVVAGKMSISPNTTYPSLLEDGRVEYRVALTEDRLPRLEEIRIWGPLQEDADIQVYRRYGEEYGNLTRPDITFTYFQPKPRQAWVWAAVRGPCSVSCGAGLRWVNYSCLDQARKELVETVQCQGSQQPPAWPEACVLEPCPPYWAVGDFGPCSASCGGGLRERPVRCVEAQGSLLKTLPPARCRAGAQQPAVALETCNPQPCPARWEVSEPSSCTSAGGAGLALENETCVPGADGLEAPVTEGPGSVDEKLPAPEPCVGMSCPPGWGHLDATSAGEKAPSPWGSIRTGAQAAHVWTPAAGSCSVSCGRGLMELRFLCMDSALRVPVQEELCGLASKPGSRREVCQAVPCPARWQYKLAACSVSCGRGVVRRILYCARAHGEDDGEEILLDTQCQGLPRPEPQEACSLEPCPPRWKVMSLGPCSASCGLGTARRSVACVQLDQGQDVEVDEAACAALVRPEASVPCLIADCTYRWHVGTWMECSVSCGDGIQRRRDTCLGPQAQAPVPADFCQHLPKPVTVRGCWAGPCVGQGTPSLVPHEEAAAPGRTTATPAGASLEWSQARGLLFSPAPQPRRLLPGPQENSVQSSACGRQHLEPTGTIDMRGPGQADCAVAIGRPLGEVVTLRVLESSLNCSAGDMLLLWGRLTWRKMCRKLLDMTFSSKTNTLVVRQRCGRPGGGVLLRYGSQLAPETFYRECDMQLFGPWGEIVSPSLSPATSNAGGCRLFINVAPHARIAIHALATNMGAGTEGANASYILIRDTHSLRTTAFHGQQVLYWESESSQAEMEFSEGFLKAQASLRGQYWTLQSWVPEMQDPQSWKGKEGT

[2] = target: T2, trADAMTS-13^R312K (truncated ADAMTS-13 mutant, Arg312 to Lys)
T2 chain: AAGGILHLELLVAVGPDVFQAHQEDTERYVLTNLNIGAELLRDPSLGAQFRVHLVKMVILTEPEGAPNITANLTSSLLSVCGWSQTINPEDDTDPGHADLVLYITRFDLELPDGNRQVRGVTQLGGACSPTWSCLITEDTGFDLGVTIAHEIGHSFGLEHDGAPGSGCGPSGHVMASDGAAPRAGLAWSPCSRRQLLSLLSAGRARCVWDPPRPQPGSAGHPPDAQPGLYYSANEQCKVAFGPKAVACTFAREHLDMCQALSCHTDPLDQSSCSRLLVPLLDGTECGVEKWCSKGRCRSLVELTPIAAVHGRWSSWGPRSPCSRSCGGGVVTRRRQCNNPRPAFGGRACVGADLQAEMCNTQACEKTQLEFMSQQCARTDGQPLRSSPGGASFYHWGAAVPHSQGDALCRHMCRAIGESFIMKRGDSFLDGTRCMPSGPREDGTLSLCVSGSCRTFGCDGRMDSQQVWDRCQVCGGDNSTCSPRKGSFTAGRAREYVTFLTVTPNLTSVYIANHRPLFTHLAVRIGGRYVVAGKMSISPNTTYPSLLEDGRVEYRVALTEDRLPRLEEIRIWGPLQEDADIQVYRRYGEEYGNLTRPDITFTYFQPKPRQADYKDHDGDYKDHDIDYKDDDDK

[3] = target: T3, trADAMTS-13^V313A (truncated ADAMTS-13 mutant, Val313 to Ala)
T3 chain: T2 chain with K238R, V239A

B1: tissue plasminogen activator (tPA) (protein)
chain: SYQVICRDEKTQMIYQQHQSWLRPVLRSNRVEYCWCNSGRAQCHSVPVKSCSEPRCFNGGTCQQALYFSDFVCQCPEGFAGKCCEIGNSDCYFGNGSAYRGTHSLTESGASCLPWNSMILIGKVYTAQNPSAQALGLGKHNYCRNPDGDAKPWCHVLKNRRLTWEYCDVPSCSTCGLRQYSQPQFRIKGGLFADIASHPWQAAIFAKHRRSPGERFLCGGILISSCWILSAAHCFQERFPPHHLTVILGRTYRVVPGEEEQKFEVEKYIVHKEFDDDTYDNDIALLQLKSDSSRCAQESSVVRTVCLPPADLQLPDWTECELSGYGKHEALSPFYSERLKEAHVRLYPSSRCTSQHLLNRTVTDNMLCAGDTRSGGPQANLHDACQGDSGGPLVCLNDGRMTLVGIISWGLGCGQKDVPGVYTKVTNYLDWIRDNMRP
Question: With B1 as the protein, how does the “ADAMTS-13 activity with or without preincubation with tPA (technozym kit)” value [1] read?
Answer: the activity of both trADAMTS-13 and ADAMTS-13 WT was reduced in the presence of tPA (FIG. 4B)

Question: What about the “cleavage by tPA (Western blot) and residual proteolytic activity on vWF over time” value [2] of the same protein?
Answer: trADAMTS-13^R312K was resistant to cleavage by tPA under conditions where trADAMTS-13 was proteolyzed completely (FIG. 7A) and lost its catalytic activity (FIG. 7B)

Question: And the “residual proteolytic activity on vWF after 6 hours with or without tPA” value [2]?
Answer: trADAMTS-13^R312K and trADAMTS-13^V313D variants were resistant to inactivation by tPA

Question: What about the “residual proteolytic activity on vWF after 6 hours with or without tPA” value [3] of the same protein?
Answer: tPA inhibited the proteolytic activity of trADAMTS-13^R312A and trADAMTS-13^V313A variants on vWF (FIG. 8)

From patent publication US20230295597
